Assay results taken from US20140161804A1 (AbbVie / Abbott, published 2014).
Where a chain is given by its changes, count along the chain named.

Key:
Human IL-17A [1] = molecular target: T1, Human IL-17A (human, UniProt Q16552 20-155, limits assumed); test: ELISA, captured DVD-Ig, biotin-human IL-17 titrated
T1 construct: Biotinylated in the ELISAs; purified recombinant protein in SPR; also called hIL17A; hIL-17
Description: The following protocol is used to characterize the binding of TNF/IL-17 DVD-Ig proteins to human TNF and IL-17 by enzyme-linked immunosorbent assay (ELISA). An ELISA plate was coated with 50 μl per well of goat anti mouse IgG-Fc at 2 μg/ml, overnight at 4° C. The plate was washed 3 times with PBS/Tween. 50 μl Mab diluted to 1 μg/ml in PBS/0.1% BSA was added to appropriate wells and incubated for 1 hour at room temperature (RT). The plate was washed 3 times with PBS/Tween. 50 μl of serial diluted biotin-human TNF or IL-17 was added to appropriate wells and incubated for 1 hour at RT. The plate was washed 3 times with PBS/Tween. 50 μl of streptavidin-HRP diluted 1:10,000 in PBS/0.1% BSA was added to appropriate wells and incubated for 1 hour at RT. The plate was washed 3 times with PBS/Tween. 50 μl of TMB was added to appropriate wells and the reaction allowed to proceed for 1 minute. The reaction was stopped with 50 μl/well 2N H₂SO₄ and the absorbance read at 450 nm.

Human IL-17A [2] = molecular target: T1, Human IL-17A; test: SPR (Biacore T200), DVD-Ig captured by anti-human IgG Fc, antigen in solution
Description: (§1) The binding of antibodies to purified recombinant IL-17 and TNFα proteins were determined by surface plasmon resonance-based measurements with a Biacore® T200 instrument (GE Healthcare) using running HBS-EP (10 mM HEPES [pH 7.4], 150 mM NaCl, 3 mM EDTA, and 0.005% surfactant P20) containing 0.1 mg/ml BSA at 25° C. All chemicals were obtained from Biacore® AB (GE Healthcare) or otherwise from a different source as described in the text. Approximately 5000 RU of goat anti-human IgG (Fcγ) fragment specific polyclonal antibody (Pierce Biotechnology Inc, Rockford, Ill.) diluted in 10 mM sodium acetate (pH 4.5) was directly immobilized across a CM5 research grade biosensor chip using a standard amine coupling kit according to manufacturer's instructions and procedures at 25 ug/ml. Unreacted moieties on the biosensor surface were blocked with ethanolamine. Modified carboxymethyl dextran surface in flowcell 2, 3 and 4 were used as a reaction surface. Modified carboxymethyl dextran with goat IgG in flow cell 1 was used as the reference surface. For kinetic analysis, rate equations derived from the 1:1 Langmuir binding model were fitted simultaneously to association and dissociation phases of all six injections (using global fit analysis with local float for Rmax) with the use of Biacore T200 Evaluation software v.1.0. Purified antibodies were diluted in HEPES-buffered saline for capture across goat anti-human IgG specific reaction surfaces. Antibodies to be captured as ligand (1-5 μg/ml) were injected over reaction matrices at a flow rate of 50 μl/minute. Association phase was monitored for 5 minutes, while dissociation phase was monitored for 10-60 minutes to accommodate for slower off-rates. The association and dissociation rate constants, ka (unit M-1 s-1) and kd (unit s-1) were determined under a continuous flow rate of 50 μl/minute. Rate constants were derived by making kinetic binding measurements at six different antigen concentrations ranging from 0.78 nM to 100 nM, depending on the species of IL-17 or TNFα tested. The association ka, dissociation rate kd and equilibrium dissociation constant KD were calculated with the use of the same Biacore T200 Evaluation software v.1.0.

Cynomolgus monkey IL-17A = molecular target: T2, Cynomolgus monkey IL-17A (cynomolgus monkey, UniProt A0A2K5TTB0 24-155); test: as above
T2 construct: also called Cyno IL-17AA; Cyno IL17AA
T2 sequence (A0A2K5TTB0 entry or part of it): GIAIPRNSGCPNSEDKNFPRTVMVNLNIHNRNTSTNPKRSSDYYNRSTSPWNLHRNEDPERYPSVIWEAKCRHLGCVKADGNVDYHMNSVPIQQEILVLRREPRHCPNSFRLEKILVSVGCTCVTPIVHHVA
Description: as §1

Rhesus TNFa = molecular target: T3, Rhesus TNFa (rhesus, UniProt P48094 77-233); test: as above
T3 construct: also called Rhesus TNF-alpha
T3 sequence (P48094 77-233 limits assumed): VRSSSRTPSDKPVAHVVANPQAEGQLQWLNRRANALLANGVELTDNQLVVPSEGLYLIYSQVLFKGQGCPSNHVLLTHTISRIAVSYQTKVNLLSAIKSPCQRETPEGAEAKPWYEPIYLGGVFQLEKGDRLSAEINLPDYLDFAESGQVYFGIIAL
Description: as §1

T1 sequence (Q16552 20-155 limits assumed): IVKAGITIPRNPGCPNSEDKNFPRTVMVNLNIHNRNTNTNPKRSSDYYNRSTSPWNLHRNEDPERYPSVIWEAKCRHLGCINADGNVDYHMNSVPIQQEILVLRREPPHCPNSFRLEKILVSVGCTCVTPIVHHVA

B1: hMAK195-24-h10F7-M11.4 DVD-Ig wt (bispecific antibody, human IgG1, kappa)
heavy: not shown
light: DIQMTQSPSSLSASVGDRVTITCKASQLVSSAVAWYQQKPGKAPKLLIYWASTLHTGVPSRFSGSGSGTDFTLTISSLQPEDFATYYCQQHYRTPFTFGQGTKLEIKRTVAAPDIQMTQSPSSLSASVGDRVTITCRASSGIISYIDWFQQKPGKAPKRLIYATFDLASGVPSRFSGSGSGTDYTLTISSLQPEDFATYYCRQVGSYPETFGQGTKLEIKRTVAAPSVFIFPPSDEQLKSGTASVVCLLNNFYPREAKVQWKVDNALQSGNSQESVTEQDSKDSTYSLSSTLTLSKADYEKHKVYACEVTHQGLSSPVTKSFNRGEC
notes: DVD-Ig; wild-type IgG1 (CG1 Z NONA), kappa; short (SS) linkers ASTKGP / TVAAP; also called HMAK195-24-SS-H10F7-M11 DVD
Work on B1 yielded an EC50 (Human IL-17A [1]) greater than 0.5 nM.

B2: h10F7-M11-hMAk199-4.4 DVD-Ig wt (bispecific antibody, human IgG1, kappa)
heavy: not shown
light: DIQMTQSPSSLSASVGDRVTITCRASSGIISYIDWFQQKPGKAPKRLIYATFDLASGVPSRFSGSGSGTDYTLTISSLQPEDFATYYCRQVGSYPETFGQGTKLEIKRTVAAPDIQMTQSPSSLSASVGDRVTITCRASQDIENYLNWYQQKPGKAPKLLIYYTSRLQSGVPSRFSGSGSGTDFTLTISSLQPEDFATYFCQQGNTQPPTFGQGTKLEIKRTVAAPSVFIFPPSDEQLKSGTASVVCLLNNFYPREAKVQWKVDNALQSGNSQESVTEQDSKDSTYSLSSTLTLSKADYEKHKVYACEVTHQGLSSPVTKSFNRGEC
notes: DVD-Ig, IL-17 outer / TNF inner domain; wild-type IgG1, kappa; short linkers
With B2 the EC50 (Human IL-17A [1]) was 0.04 nM.

B3: hMAK199-10-h10F7-M10.8 DVD-Ig (bispecific antibody, human IgG1, kappa, L234A L235A)
heavy: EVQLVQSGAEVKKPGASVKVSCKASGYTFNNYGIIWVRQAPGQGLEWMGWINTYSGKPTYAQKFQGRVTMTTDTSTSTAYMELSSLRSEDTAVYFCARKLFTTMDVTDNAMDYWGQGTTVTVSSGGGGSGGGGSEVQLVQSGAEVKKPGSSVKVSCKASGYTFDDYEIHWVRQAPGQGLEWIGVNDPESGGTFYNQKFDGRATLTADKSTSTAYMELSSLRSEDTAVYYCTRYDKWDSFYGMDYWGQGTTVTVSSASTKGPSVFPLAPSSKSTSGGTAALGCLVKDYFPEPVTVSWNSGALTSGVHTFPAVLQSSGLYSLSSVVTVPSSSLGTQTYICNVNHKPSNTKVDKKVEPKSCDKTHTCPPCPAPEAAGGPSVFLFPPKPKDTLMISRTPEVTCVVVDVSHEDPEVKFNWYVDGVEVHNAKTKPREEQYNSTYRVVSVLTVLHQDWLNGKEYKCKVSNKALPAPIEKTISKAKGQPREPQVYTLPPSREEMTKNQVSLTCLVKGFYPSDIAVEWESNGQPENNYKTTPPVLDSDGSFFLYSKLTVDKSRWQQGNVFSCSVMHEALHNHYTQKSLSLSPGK
light: DIQMTQSPSSLSASVGDRVTITCRASQDISNFLNWYQQKPGKAPKLLIYYTSRLQSGVPSRFSGSGSGTDYTLTISSLQPEDFATYFCQQGNTQPPTFGQGTKLEIKRGGSGGGGSGDIQMTQSPSSLSASVGDRVTITCSASSGSISYIDWFQQKPGKAPKRLIYATFELASGVPSRFSGSGSGTDFTLTISSLQPEDFATYYCHQLGSYPDTFGQGTKLEIKRTVAAPSVFIFPPSDEQLKSGTASVVCLLNNFYPREAKVQWKVDNALQSGNSQESVTEQDSKDSTYSLSSTLTLSKADYEKHKVYACEVTHQGLSSPVTKSFNRGEC
notes: DVD-Ig; IgG1 234,235 mut, kappa; GS10 linkers; also called HMAK199-10-GS10-H10F7-M10 DVD
In the case of B3, the EC50 (Human IL-17A [1]) is reported as 0.079 nM.

B4: hMAK199-6-h10F7-M10.8 DVD-Ig (bispecific antibody, human IgG1, kappa, L234A L235A)
heavy: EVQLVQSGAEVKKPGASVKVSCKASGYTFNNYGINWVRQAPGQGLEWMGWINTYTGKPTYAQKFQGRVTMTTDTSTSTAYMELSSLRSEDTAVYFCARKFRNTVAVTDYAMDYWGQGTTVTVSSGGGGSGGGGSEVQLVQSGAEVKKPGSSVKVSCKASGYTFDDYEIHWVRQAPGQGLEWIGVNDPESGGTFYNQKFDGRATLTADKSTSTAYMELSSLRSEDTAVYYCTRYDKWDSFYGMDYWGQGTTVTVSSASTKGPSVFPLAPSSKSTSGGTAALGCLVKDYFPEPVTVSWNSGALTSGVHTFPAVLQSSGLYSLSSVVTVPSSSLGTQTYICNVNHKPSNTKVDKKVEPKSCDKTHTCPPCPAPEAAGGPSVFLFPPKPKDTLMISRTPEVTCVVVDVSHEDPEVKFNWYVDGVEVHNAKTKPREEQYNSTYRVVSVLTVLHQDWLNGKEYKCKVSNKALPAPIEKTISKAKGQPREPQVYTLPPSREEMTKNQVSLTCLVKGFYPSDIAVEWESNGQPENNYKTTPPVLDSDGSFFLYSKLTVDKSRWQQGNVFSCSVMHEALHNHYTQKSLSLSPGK
light: B3 light with S30Y, N31D, F32V, T51A, Y71F, F87Y, N92I, Q94L
notes: DVD-Ig; IgG1 234,235 mut, kappa; GS10 linkers; also called HMAK199-6-GS10-H10F7-M10 DVD
Work on B4 yielded an EC50 (Human IL-17A [1]) of 0.163 nM.

B5: hMAK199-10-h10F7-M11.8 DVD-Ig (bispecific antibody, human IgG1, kappa, L234A L235A)
heavy: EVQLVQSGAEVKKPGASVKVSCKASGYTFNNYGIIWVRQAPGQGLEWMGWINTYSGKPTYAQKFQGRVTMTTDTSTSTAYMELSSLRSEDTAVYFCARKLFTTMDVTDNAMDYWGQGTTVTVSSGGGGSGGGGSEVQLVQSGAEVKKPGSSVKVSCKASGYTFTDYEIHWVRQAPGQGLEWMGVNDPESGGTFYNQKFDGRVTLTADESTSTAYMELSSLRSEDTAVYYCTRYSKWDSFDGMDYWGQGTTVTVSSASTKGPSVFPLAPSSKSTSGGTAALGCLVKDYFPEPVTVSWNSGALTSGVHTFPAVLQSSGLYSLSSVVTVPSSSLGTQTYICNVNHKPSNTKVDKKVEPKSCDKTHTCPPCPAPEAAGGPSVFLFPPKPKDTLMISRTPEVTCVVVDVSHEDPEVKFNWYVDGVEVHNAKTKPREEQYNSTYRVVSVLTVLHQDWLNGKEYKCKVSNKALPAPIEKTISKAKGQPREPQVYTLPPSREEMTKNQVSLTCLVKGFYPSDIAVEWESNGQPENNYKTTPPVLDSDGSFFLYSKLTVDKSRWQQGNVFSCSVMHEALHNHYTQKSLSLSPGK
light: B3 light with S141R, S146I, E170D, F188Y, H206R, L208V, D213E
notes: DVD-Ig; IgG1 234,235 mut, kappa; GS10 linkers; also called HMAK199-10-GS10-H10F7-M11 DVD
B5 gave an EC50 (Human IL-17A [1]) of 0.133 nM.

B6: hMAK199-4-h10F7-M11.8 DVD-Ig (bispecific antibody, human IgG1, kappa, L234A L235A)
heavy: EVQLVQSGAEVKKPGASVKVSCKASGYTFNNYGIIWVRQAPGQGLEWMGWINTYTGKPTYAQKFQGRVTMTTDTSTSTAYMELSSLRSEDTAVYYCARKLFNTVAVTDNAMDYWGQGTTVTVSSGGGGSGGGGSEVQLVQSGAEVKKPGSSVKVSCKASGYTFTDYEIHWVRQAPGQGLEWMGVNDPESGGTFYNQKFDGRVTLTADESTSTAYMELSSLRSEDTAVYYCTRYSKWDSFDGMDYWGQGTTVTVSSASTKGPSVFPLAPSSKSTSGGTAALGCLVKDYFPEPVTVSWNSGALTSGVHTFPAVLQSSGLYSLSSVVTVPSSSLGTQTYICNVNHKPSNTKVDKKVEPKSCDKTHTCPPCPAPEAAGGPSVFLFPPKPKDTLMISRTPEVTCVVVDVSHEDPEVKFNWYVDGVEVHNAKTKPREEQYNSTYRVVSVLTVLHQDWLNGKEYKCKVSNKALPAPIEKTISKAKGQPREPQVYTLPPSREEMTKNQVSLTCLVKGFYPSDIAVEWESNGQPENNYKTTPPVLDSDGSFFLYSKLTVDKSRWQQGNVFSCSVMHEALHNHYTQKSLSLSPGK
light: B3 light with S30E, F32Y, Y71F, S141R, S146I, E170D, F188Y, H206R, L208V, D213E
notes: DVD-Ig; IgG1 234,235 mut, kappa; GS10 linkers; also called HMAK199-4-GS10-H10F7-M11 DVD
Binder B6 has a Kd (Human IL-17A [2]) of 0.0271 nM, a koff (Human IL-17A [2]) of 8.76e-06 s⁻¹ and a kon (Human IL-17A [2]) of 323000 M⁻¹ s⁻¹. It also gave a Kd (Cynomolgus monkey IL-17A) of 8.61 pM, a koff (Cynomolgus monkey IL-17A) of 2.57e-06 s⁻¹ and a kon (Cynomolgus monkey IL-17A) of 299000 M⁻¹ s⁻¹. For the same binder, the Kd (Rhesus TNFa) was 7.72 pM, the koff (Rhesus TNFa) was 2.25e-05 s⁻¹ and the kon (Rhesus TNFa) was 2.91e+06 M⁻¹ s⁻¹. It also gave an EC50 (Human IL-17A [1]) of 0.13 nM.

B7: hMAK195-21-h10F7-A11.8 DVD-Ig (bispecific antibody, human IgG1, kappa, L234A L235A)
heavy: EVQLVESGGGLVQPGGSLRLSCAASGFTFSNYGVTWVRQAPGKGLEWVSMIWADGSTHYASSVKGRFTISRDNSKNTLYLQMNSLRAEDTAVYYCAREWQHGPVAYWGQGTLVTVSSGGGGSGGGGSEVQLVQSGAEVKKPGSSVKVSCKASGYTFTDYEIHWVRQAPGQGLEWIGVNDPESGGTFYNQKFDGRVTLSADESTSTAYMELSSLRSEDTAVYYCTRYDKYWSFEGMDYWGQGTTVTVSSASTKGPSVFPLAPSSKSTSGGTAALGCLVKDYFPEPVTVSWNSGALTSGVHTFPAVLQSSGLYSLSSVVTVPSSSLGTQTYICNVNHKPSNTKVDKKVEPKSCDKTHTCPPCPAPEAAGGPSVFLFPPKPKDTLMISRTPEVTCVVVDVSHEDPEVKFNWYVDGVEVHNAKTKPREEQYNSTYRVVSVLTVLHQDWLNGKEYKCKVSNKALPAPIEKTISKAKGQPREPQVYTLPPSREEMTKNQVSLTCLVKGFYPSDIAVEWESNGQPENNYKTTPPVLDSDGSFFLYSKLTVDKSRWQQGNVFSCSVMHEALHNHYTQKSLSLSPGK
light: DIQMTQSPSSLSASVGDRVTITCRASQLVSSAVAWYQQKPGKAPKLLIYWASARHTGVPSRFSGSGSGTDFTLTISSLQPEDFATYYCQQHYKTPFTFGQGTKLEIKRGGSGGGGSGDIQMTQSPSSLSASVGDRVTITCRASSGIISYIDWFQQKPGKAPKRLIYATFDLASGVPSRFSGSGSGTDYTLTISSLQPEDFATYYCRQVGSYPETFGQGTKLEIKRTVAAPSVFIFPPSDEQLKSGTASVVCLLNNFYPREAKVQWKVDNALQSGNSQESVTEQDSKDSTYSLSSTLTLSKADYEKHKVYACEVTHQGLSSPVTKSFNRGEC
notes: DVD-Ig; IgG1 234,235 mut, kappa; GS10 linkers; light chain shared with the M11 DVD-Ig; also called hMAK195-21-GS10-A11 DVD
B7 was tested, and the EC50 (Human IL-17A [1]) was 0.3 nM.

B8: hMAK195-24-h10F7-A16.8 DVD-Ig (bispecific antibody, human IgG1, kappa, L234A L235A)
heavy: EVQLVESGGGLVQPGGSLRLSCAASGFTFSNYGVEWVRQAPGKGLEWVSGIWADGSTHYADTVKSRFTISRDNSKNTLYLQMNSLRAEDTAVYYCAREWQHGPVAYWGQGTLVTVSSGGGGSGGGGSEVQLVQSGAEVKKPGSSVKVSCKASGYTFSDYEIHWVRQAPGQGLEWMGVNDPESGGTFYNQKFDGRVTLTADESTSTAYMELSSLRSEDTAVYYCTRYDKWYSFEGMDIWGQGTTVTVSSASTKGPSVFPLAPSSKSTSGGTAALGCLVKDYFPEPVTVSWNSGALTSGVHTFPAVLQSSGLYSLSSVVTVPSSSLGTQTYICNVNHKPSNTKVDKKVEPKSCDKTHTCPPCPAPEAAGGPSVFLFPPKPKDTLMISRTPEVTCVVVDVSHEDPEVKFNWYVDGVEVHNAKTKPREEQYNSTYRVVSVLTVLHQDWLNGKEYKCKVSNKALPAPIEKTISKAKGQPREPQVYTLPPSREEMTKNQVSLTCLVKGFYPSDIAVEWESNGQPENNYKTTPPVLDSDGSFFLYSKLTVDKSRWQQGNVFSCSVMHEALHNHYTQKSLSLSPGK
light: B7 light with R24K, A53T, R54L, K93R, R141S, S144Q, I147R, A160S, S210N, E213G
notes: DVD-Ig; IgG1 234,235 mut, kappa; GS10 linkers; light chain shared with the A6 DVD-Ig; also called hMAK195-24-GS10-A16 DVD
For B8, the EC50 (Human IL-17A [1]) was 0.093 nM.

B9: hMAK195-21-h10F7-A6.8 DVD-Ig (bispecific antibody, human IgG1, kappa, L234A L235A)
heavy: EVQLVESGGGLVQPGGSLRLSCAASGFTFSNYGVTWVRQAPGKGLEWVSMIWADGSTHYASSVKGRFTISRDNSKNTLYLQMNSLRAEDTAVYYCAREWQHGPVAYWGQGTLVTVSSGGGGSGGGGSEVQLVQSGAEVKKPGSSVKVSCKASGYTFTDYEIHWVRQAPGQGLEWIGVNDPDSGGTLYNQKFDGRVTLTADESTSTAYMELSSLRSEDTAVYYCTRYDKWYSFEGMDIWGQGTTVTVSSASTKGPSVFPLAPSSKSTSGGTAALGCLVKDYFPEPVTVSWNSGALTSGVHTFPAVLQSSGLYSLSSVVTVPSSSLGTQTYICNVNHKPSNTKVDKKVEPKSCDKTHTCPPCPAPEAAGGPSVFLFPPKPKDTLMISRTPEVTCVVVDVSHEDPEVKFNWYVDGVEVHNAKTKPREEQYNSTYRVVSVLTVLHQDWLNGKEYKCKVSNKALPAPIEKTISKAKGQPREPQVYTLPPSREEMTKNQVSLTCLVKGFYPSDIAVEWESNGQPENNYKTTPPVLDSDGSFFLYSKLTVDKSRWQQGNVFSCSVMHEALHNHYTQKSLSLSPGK
light: B7 light with R141S, S144Q, I147R, A160S, S210N, E213G
notes: DVD-Ig; IgG1 234,235 mut, kappa; GS10 linkers; also called hMAK195-21-GS10-A6 DVD
In the case of B9, the EC50 (Human IL-17A [1]) is reported as 0.13 nM.
